What was measured:
SRSF1ΔIDR2 = experiment: right-angle light scattering
[1] = target: the molecule itself; experiment: right-angle light scattering
[2] = target: the molecule itself

Row | Molecule | threshold concentration for microphase separation (cμ) (SRSF1ΔIDR2) | threshold concentration for microphase separation (cμ) [1] | stoichiometry N [2]
1 | SRSF1ΔIDR2 (domain or fragment) | 0.44 µM |  | 
2 | SRSF3 (natural protein, human, UniProt P84103 1-164, looked up) MHRDSCPLDCKVYVGNLGNNGNKTELERAFGYYGPLRSVWVARNPPGFAFVEFEDPRDAADAVRELDGRTLCGCRVRVELSNGEKRSRNRGPPPSWGRRPRDDYRRRSPPPRRRSPRRRSFSRSRSRSLSRDRRRERSLSRERNHKPSRSFSRSRSRSRSNERK |  | 2 ± 0.14 µM | ~93 molecules per microphase
3 | SRSF7 (natural protein, human, UniProt Q16629 1-238, looked up) MSRYGRYGGETKVYVGNLGTGAGKGELERAFSYYGPLRTVWIARNPPGFAFVEFEDPRDAEDAVRGLDGKVICGSRVRVELSTGMPRRSRFDRPPARRPFDPNDRCYECGEKGHYAYDCHRYSRRRRSRSRSRSHSRSRGRRYSRSRSRSRGRRSRSASPRRSRSISLRRSRSASLRRSRSGSIKGSRYFQSPSRSRSRSRSISRPRSSRSKSRSPSPKRSRSPSGSPRRSASPERMD |  | 1 ± 0.14 µM | ~8 molecules per microphase
4 | SRSF5 (natural protein, human, UniProt Q13243 1-272, looked up) MSGCRVFIGRLNPAAREKDVERFFKGYGRIRDIDLKRGFGFVEFEDPRDADDAVYELDGKELCSERVTIEHARARSRGGRGRGRYSDRFSSRRPRNDRRNAPPVRTENRLIVENLSSRVSWQDLKDFMRQAGEVTFADAHRPKLNEGVVEFASYGDLKNAIEKLSGKEINGRKIKLIEGSKRHSRSRSRSRSRTRSSSRSRSRSRSRSRKSYSRSRSRSRSRSRSKSRSVSRSPVPEKSQKRGSSSRSKSPASVDRQRSRSRSRSRSVDSGN |  | 9.5 ± 0.71 µM | ~14 molecules per microphase

— article PMC12922802 (Cell, 2025)
